Key:
[1] = target: BG505 SOSIP.664 trimer (HIV-1 BG505); experiment: negative-stain electron microscopy
[2] = target: BG505 SOSIP.664 trimer, captured by anti-histidine (SPR of Fig. 2d) (HIV-1 BG505); experiment: SPR

Row | Substance | stoichiometry N (Fabs per trimer) [1] | Kd [2] [nM]
1 | 35O22 Fab | 3 | –
2 | 35O22 antibody (full-length IgG) | – | 5.6

Source: PMC4224615
